Results reported in US20200024330A1.

Assays:
Assay in all cases: cell-based or functional assay
[1] = target: HIV-1 Env of isolate MG RM-A-010 (pseudovirus) (HIV-1)
[2] = target: HIV-1 Env of isolate APV_6 (HIV-1)
[3] = target: HIV-1 92BR020 envelope glycoprotein (Env) on pseudovirus (HIV-1)
[4] = target: HIV-1 Env of isolate 94UG103 (pseudovirus) (HIV-1)
[5] = target: HIV-1 Env of isolate MG RM-A-011 (pseudovirus) (HIV-1)
[6] = target: HIV-1 Env of isolate MGRM-D-008 (subtype D), on pseudovirus (HIV-1)
[7] = target: HIV-1 Env of isolate 92WR020 (pseudovirus) (HIV-1)
[8] = target: HIV-1 Env of isolate MGRM-D-003 (subtype D), on pseudovirus (HIV-1)
[9] = target: HIV-1 Env of isolate 92BR020 (HIV-1)
[10] = target: HIV-1 Env of isolate VLGCA1 (pseudovirus) (HIV-1)
[11] = target: HIV-1 Env of isolate MGRM-D-002 (subtype D), on pseudovirus (HIV-1)
[12] = target: HIV-1 Env of isolate 93WR029 (pseudovirus) (HIV-1)
[13] = target: HIV-1 Env of isolate MGRM-Chronic-B-008 (HIV-1)
[14] = target: HIV-1 Env of isolate 93TH305 (HIV-1)
[15] = target: HIV-1 Env of isolate MGRM-D-005 (subtype D), on pseudovirus (HIV-1)
[16] = target: HIV-1 Env of isolate MGRM-AE-001 (pseudovirus) (HIV-1)
[17] = target: HIV-1 Env of isolate MG RM-A-012 (pseudovirus) (HIV-1)
[18] = target: HIV-1 Env of isolate MGRM-Chronic-B-002 (HIV-1)
[19] = target: HIV-1 Env of isolate MG RM-A-007 (pseudovirus) (HIV-1)
[20] = target: HIV-1 Env of isolate APV_13 (HIV-1)
[21] = target: HIV-1 Env of isolate CMU02 (pseudovirus) (HIV-1)
[22] = target: HIV-1 Env of isolate MGRM-Chronic-B-003 (HIV-1)
[23] = target: HIV-1 Env of isolate 92RW008 (clade A), on pseudovirus (HIV-1)
[24] = target: HIV-1 Env of isolate MGRM-D-004 (subtype D), on pseudovirus (HIV-1)
[25] = target: HIV-1 Env of isolate MGRM-AE-004 (pseudovirus) (HIV-1)
[26] = target: HIV-1 Env of isolate MGRM-AE-002 (pseudovirus) (HIV-1)
[27] = target: HIV-1 Env of isolate 92RW009 (clade A), on pseudovirus (HIV-1)
[28] = target: HIV-1 Env of isolate MGRM-Chronic-B-001 (HIV-1)
[29] = target: HIV-1 Env of isolate MG RM-A-006 (pseudovirus) (HIV-1)
[30] = target: HIV-1 Env of isolate 98CN009 (subtype CRF07_BC), on pseudovirus (HIV-1)
[31] = target: HIV-1 Env of isolate 6535.3 (HIV-1)
[32] = target: HIV-1 Env of isolate 92UG005 (subtype D), on pseudovirus (HIV-1)
[33] = target: HIV-1 Env of isolate 93UG077 (pseudovirus) (HIV-1)
[34] = target: HIV-1 Env of isolate MGRM-AE-003 (pseudovirus) (HIV-1)
[35] = target: HIV-1 Env of isolate 92UG031 (pseudovirus) (HIV-1)
[36] = target: HIV-1 Env of isolate 92TH021 (pseudovirus) (HIV-1)
[37] = target: HIV-1 Env of isolate 92WR024 (pseudovirus) (HIV-1)
[38] = target: HIV-1 Env of isolate 94 KE 105 (pseudovirus) (HIV-1)
[39] = target: HIV-1 Env of isolate MGRM-AE-005 (pseudovirus) (HIV-1)
[40] = target: HIV-1 Env of isolate MG RM-A-009 (pseudovirus) (HIV-1)
[41] = target: HIV-1 Env of isolate MGRM-AE-006 (pseudovirus) (HIV-1)
[42] = target: HIV-1 Env of isolate 92UG037 (pseudovirus) (HIV-1)
[43] = target: HIV-1 Env of isolate APV_17 (HIV-1)
[44] = target: HIV-1 Env of isolate 92UG024 (subtype D), on pseudovirus (HIV-1)
[45] = target: HIV-1 Env of isolate 92WR021 (pseudovirus) (HIV-1)
[46] = target: HIV-1 Env of isolate 92UG001 (subtype D), on pseudovirus (HIV-1)
[47] = target: HIV-1 Env of isolate 92WR026 (pseudovirus) (HIV-1)
[48] = target: HIV-1 Env of isolate 98CN006 (subtype CRF08 BC), on pseudovirus (HIV-1)
[49] = target: HIV-1 Env of isolate MG RM-A-014 (pseudovirus) (HIV-1)
[50] = target: HIV-1 92RW020 envelope glycoprotein (Env) on pseudovirus (HIV-1)
[51] = target: HIV-1 Env of isolate MGRM-Chronic-B-004 (HIV-1)
[52] = target: HIV-1 Env of isolate 92UG046 (subtype D), on pseudovirus (HIV-1)
[53] = target: HIV-1 Env of isolate MG RM-A-005 (pseudovirus) (HIV-1)
[54] = target: HIV-1 Env of isolate CAAN.A2 (HIV-1)
[55] = target: HIV-1 Env of isolate MG RM-A-008 (pseudovirus) (HIV-1)
[56] = target: HIV-1 Env of isolate MGRM-D-001 (subtype D), on pseudovirus (HIV-1)
[57] = target: HIV-1 Env of isolate 92UG114 (subtype D), on pseudovirus (HIV-1)
[58] = target: HIV-1 Env of isolate MG RM-A-013 (pseudovirus) (HIV-1)
[59] = target: HIV-1 Env of isolate JRFL (HIV-1)

4993_K13 (PGT-141) (antibody), sequence (VH): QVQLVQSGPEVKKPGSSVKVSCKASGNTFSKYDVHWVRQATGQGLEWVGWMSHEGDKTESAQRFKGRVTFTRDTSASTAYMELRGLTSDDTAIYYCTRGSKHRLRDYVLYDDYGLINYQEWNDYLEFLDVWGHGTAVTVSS
4993_K13 (PGT-141) (antibody), sequence (VL): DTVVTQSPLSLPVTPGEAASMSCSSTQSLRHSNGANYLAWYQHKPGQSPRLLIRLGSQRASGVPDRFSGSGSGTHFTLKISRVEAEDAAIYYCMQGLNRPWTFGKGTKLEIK

## 4993_K13 (PGT-141) (antibody)
[1]
  IC50 (µg/mL), pseudovirus neutralization: 0.022 µg/mL
[2]
  IC50: 14.2 µg/mL
[3]
  IC50 (ug/ml), neutralizing activity: > 10 µg/mL
[4]
  IC50 (µg/mL), pseudovirus neutralization: > 50 µg/mL
[5]
  IC50 (µg/mL), pseudovirus neutralization: > 50 µg/mL
[6]
  IC50, pseudovirus neutralization: 0.371 µg/mL
[7]
  IC50 (µg/mL), pseudovirus neutralization: > 50 µg/mL
[8]
  IC50, pseudovirus neutralization: > 50 µg/mL
[9]
  IC50: 20.3 µg/mL
[10]
  IC50 (µg/mL), pseudovirus neutralization: 2.07 µg/mL
[11]
  IC50, pseudovirus neutralization: > 50 µg/mL
[12]
  IC50 (µg/mL), pseudovirus neutralization: 0.019 µg/mL
[13]
  IC50: > 50 µg/mL
[14]
  IC50: > 50 µg/mL
[15]
  IC50, pseudovirus neutralization: 5.15 µg/mL
[16]
  IC50 (µg/mL), pseudovirus neutralization: > 50 µg/mL
[17]
  IC50 (µg/mL), pseudovirus neutralization: > 50 µg/mL
[18]
  IC50: > 50 µg/mL
[19]
  IC50 (µg/mL), pseudovirus neutralization: > 50 µg/mL
[20]
  IC50: > 50 µg/mL
[21]
  IC50 (µg/mL), pseudovirus neutralization: > 50 µg/mL
[22]
  IC50: 0.4 µg/mL
[23]
  IC50, single-round pseudovirus neutralization: 0.579 µg/mL
[24]
  IC50, pseudovirus neutralization: > 50 µg/mL
[25]
  IC50 (µg/mL), pseudovirus neutralization: > 50 µg/mL
[26]
  IC50 (µg/mL), pseudovirus neutralization: > 50 µg/mL
[27]
  IC50, single-round pseudovirus neutralization: 0.022 µg/mL
[28]
  IC50: > 50 µg/mL
[29]
  IC50 (µg/mL), pseudovirus neutralization: > 50 µg/mL
[30]
  IC50, pseudovirus neutralization: 1.28 µg/mL
[31]
  IC50: > 50 µg/mL
[32]
  IC50, pseudovirus neutralization: > 5 µg/mL
[33]
  IC50 (µg/mL), pseudovirus neutralization: > 50 µg/mL
[34]
  IC50 (µg/mL), pseudovirus neutralization: > 50 µg/mL
[35]
  IC50 (µg/mL), pseudovirus neutralization: 0.093 µg/mL
[36]
  IC50 (µg/mL), pseudovirus neutralization: 0.001 µg/mL
[37]
  IC50 (µg/mL), pseudovirus neutralization: 0.175 µg/mL
[38]
  IC50 (µg/mL), pseudovirus neutralization: 0.204 µg/mL
[39]
  IC50 (µg/mL), pseudovirus neutralization: > 50 µg/mL
[40]
  IC50 (µg/mL), pseudovirus neutralization: 0.029 µg/mL
[41]
  IC50 (µg/mL), pseudovirus neutralization: > 50 µg/mL
[42]
  IC50 (µg/mL), pseudovirus neutralization: 1.28 µg/mL
[43]
  IC50: 0.59 µg/mL
[44]
  IC50, pseudovirus neutralization: > 50 µg/mL
[45]
  IC50 (µg/mL), pseudovirus neutralization: > 50 µg/mL
[46]
  IC50, pseudovirus neutralization: > 50 µg/mL
[47]
  IC50 (µg/mL), pseudovirus neutralization: 1.78 µg/mL
[48]
  IC50, pseudovirus neutralization: > 50 µg/mL
[49]
  IC50 (µg/mL), pseudovirus neutralization: 0.628 µg/mL
[50]
  IC50 (ug/ml), neutralizing activity: > 10 µg/mL
[51]
  IC50: 0.586 µg/mL
[52]
  IC50, pseudovirus neutralization: > 50 µg/mL
[53]
  IC50 (µg/mL), pseudovirus neutralization: 11.1 µg/mL
[54]
  IC50: > 50 µg/mL
[55]
  IC50 (µg/mL), pseudovirus neutralization: > 50 µg/mL
[56]
  IC50, pseudovirus neutralization: > 50 µg/mL
[57]
  IC50, pseudovirus neutralization: > 50 µg/mL
[58]
  IC50 (µg/mL), pseudovirus neutralization: 9.86 µg/mL
[59]
  IC50: > 50 µg/mL
